The results in this text go back to US12485079B2, “Compositions and methods relating to pigmentation” (Alastin Skincare, Inc., priority 2020, dated 2025).

In series [1] the test system is PMEL, tyrosinase genes, MC1/4R, EDNRB, MITF, ERK1/2, JNK, AKT1. Briefly: Gene expression studies of Example 5. The class given is cell-based. An excerpt: The methods similar to Examples 3-4 were used to measure expression of PMEL, tyrosinase genes, MC1/4R, EDNRB, MITF, ERK1/2, JNK, and ANKT1.
FIGS. 10A-10D illustrates the expression of PMEL (FIG. 10A), Tyrosinase genes (FIG. 10B), MC1/4R (FIG. 10C), and EDNRB (FIG. 10D) after treatment of endothelial cells with lactoferrin (Lacto), peptide derived from lactoferrin (TCV), hexapeptide-12 (Hex12), tripeptide-1 and hexapeptide-12 (TriHex), hexapeptide-11 (Hex11), tranexamic acid (Tran acid) octapeptide (Octa), phosphatidylserine (phos), Cannabidiol (CBD), and all (total).
MITF is regulated by phosphorylation. Specifically, the MAPK and Akt pathways are known to phosphorylate MITF at certain sites. FIGS. 12A-12C illustrate the expression of ERK1/2 (MAPK3/MAPK1) (FIG. 12A), JNK (FIG. 12B), AKT1 (FIG. 12C) after treatment of endothelial cells with lactoferrin (Lacto), peptide derived from lactoferrin (TCV), hexapeptide-12 (Hex12), tripeptide-1 and hexapeptide-12 (TriHex), hexapeptide-11 (Hex11), octapeptide (Octa), phosphatidylserine (phos), Cannabidiol (CBD), and all (total).

The test system of series [2] is melanocytes (melanin production). The experiment in a line: In vitro melanocyte comparative analysis via absorbance readings (Example 4). The class given is cell-based. Particulars: for Absorbance 405 nm / Absorbance 490 nm / Absorbance 492 nm: melanocyte lysates, 4 days. Here is the method: Melanocytes were cultured in 6-well plates containing growth media. Once confluent, 2 concentrations of each of the 10 compounds were added to the cells in triplicate wells for 4 days. There were a total of eleven 6-well plates, one for each compound treatment and one for the vehicle control. Absorbance readings were taken on the lysates prepared for each well of the 6-well plates, normalizing for cells counts. […] Additional validation was carried out using MSH addition to media to confirm increased stimulation of melanin production. The following compounds used in this study are seen in Table 7.

Series [3] concerns hTERT-immortalized dermal melanocytes. The experiment in a line: Melanocyte assay, absorbance of lysate pellets (Example 6). The class given is cell-based, human. The conditions noted are these: melanocyte lysate pellet, 5 days. The method, then:
hTERT-immortalized dermal melanocytes were treated with various compounds.
Stocks of compounds 1 through 10 on the list below were suspended in either complete melanocyte growth media or DMSO (indicated in parentheses.) Each compound re-suspension was then diluted in melanocyte growth media to the final concentrations in Table 9.
Lysates were prepared for each sample. Briefly, 6.6×10^5 cells from each sample was spun down and collected in a vial. 150 uL of CHAPS lysis buffer was added to each duplicate sample, vortexed and placed in a dry-ice/ethanol bath for 2 minutes, then left at room temp until completed thawed. This freeze thaw was done one more time, for a total of two freeze/thaw cycles. The lysate samples were spun for 15 minutes at 14,800 rpm. The supernatant was removed, leaving a black pellet in the vial. The pellet was re-suspended in 100 uL of a 1 M NaOH/10% DMSO solution and incubated at 80° C. for 90 minutes, pipet mixing at 30 minutes, 60 minutes and at 90 minutes.
100 uL of each duplicate sample at each concentration was added to individual wells of a flat bottom 96 well plate and absorbance readings were taken at 405 nm, 490 nm and 492 nm on the Envision 2103 Multilabel Reader.

The test system of series [4] is melanogenic genes in melanocytes. The experiment in a line: Gene expression study (RNA sequencing) in PGE2-induced melanocytes. The class given is cell-based, human. The method, then: (§1) Four cell types associated with pigmentation pathways-melanocytes, keratinocytes, fibroblasts and endothelial (HUVEC) cells-were analyzed for gene expression.
(§2) To simulate the UV stimulatory pigmentation pathway process, melanocytes were pre-treated with PGE2, a normal direct consequence of UV light exposure usually emanating from exposed keratinocytes. After the 48 hour attachment culture, these melanocytes were induced with 10 uM PGE2 in melanocyte media for 24 hrs. The four primary human adult dermal cell lines were cultured and plated in well plates in triplicate and then treated with 11 different compound treatments (plus DMSO control). After 48 hours of attachment culture, the remaining fibroblasts, HUVECs and keratinocytes were treated with the test compounds listed in Table 6.
(§3) After 24 hours of compound exposure, RNA lysate preparation was carried out and samples were shipped to MedGenome for RNA extraction, library construction and sequencing to 25M paired end 100 bp reads per sample. Library prep and sequencing was completed at MedGenome.

Series [5] relates to hTERT-immortalized dermal melanocytes. Briefly: Melanocyte assay, daily inspection of morphology and survival (Example 6). The conditions noted are these: both 500 and 1000 ug/mL.
Method: Melanocytes were initially plated in 6-well tissue culture plate (1.5×10^3 cells per well) in melanocyte growth media (Dermal Cell Basal Medium (ATCC® PCS-200-030 supplemented with Melanocyte Growth Kit (ATCC® PCS-200-041). Melanocytes were then expanded into 10 cm tissue culture plates at concentrations recommended by ATCC. The cells appear to fully adhere to the plate/dish while culturing with a webbed morphology. Cells were cultured at 37° C. 5% CO2 incubator.
Once the melanocytes were 100% confluent in 6-well plates, the melanocyte growth media was removed and the melanocytes were treated with media containing the above compounds; duplicate wells for each compound/concentration listed above. The duplicate vehicle control wells were fed melanocyte growth media only or melanocyte growth media with DMSO (10 uL per 10 mL melanocyte growth media).
The cells were fed the appropriate media for the next 5 days. Each day, the cells were inspected for morphology.
Series [6] relates to melanogenic genes. Briefly: Cell line melanogenic gene activity testing, overall conclusion. The class given is cell-based, human. Particulars: conclusion over melanocytes, keratinocytes, HUVECs. Here is the method: as §1, §2, §3

B1: Lactoferrin (protein, UniProt P02788 20-710, looked up)
Lactotransferrin: GRRRSVQWCAVSQPEATKCFQWQRNMRKVRGPPVSCIKRDSPIQCIQAIAENRADAVTLDGGFIYEAGLAPYKLRPVAAEVYGTERQPRTHYYAVAVVKKGGSFQLNELQGLKSCHTGLRRTAGWNVPIGTLRPFLNWTGPPEPIEAAVARFFSASCVPGADKGQFPNLCRLCAGTGENKCAFSSQEPYFSYSGAFKCLRDGAGDVAFIRESTVFEDLSDEAERDEYELLCPDNTRKPVDKFKDCHLARVPSHAVVARSVNGKEDAIWNLLRQAQEKFGKDKSPKFQLFGSPSGQKDLLFKDSAIGFSRVPPRIDSGLYLGSGYFTAIQNLRKSEEEVAARRARVVWCAVGEQELRKCNQWSGLSEGSVTCSSASTTEDCIALVLKGEADAMSLDGGYVYTAGKCGLVPVLAENYKSQQSSDPDPNCVDRPVEGYLAVAVVRRSDTSLTWNSVKGKKSCHTAVDRTAGWNIPMGLLFNQTGSCKFDEYFSQSCAPGSDPRSNLCALCIGDEQGENKCVPNSNERYYGYTGAFRCLAENAGDVAFVKDVTVLQNTDGNNNEAWAKDLKLADFALLCLDGKRKPVTEARSCHLAMAPNHAVVSRMDKVERLKQVLLHQQAKFGRNGSDCPDKFCLFQSETKNLLFNDNTECLARLHGKTTYEKYLGPQYVAGITNLKKCSTSPLLEACEFLRK
Consider B1, for which the “melanogenic activity (expression of PMEL, Tyrosinase genes, MC1/4R, EDNRB; FIGS. 10A-10D)” value in series [1] (after treatment of endothelial cells) was “robust melanogenic activity”. The “effects on melanogenic activity (kinase expression linked to decreased MITF expression)” value in series [1] (conclusion of Example 5) is “significant effects”. The “Absorbance 405 nm” value in series [2] (500 ug/uL) is 0.509; in series [2] (1000 ug/uL) it was 0.519; in series [3] (500 ug/uL), 0.509; in series [3] (1000 ug/uL) it was 0.519. For the same molecule, the “Absorbance 490 nm” value in series [2] (500 ug/uL) amounted to 0.334; in series [2] (1000 ug/uL), 0.312; in series [3] (500 ug/uL) it was 0.334; in series [3] (1000 ug/uL), 0.312. The “Absorbance 492 nm” value in series [2] (500 ug/uL) turned out to be 0.217; in series [2] (1000 ug/uL), 0.226; in series [3] (500 ug/uL), 0.217; in series [3] (1000 ug/uL), 0.226. In series [2] (melanocytes, Table 8), the “regulation of melanogenesis (decrease of absorption = decreased melanin formation)” value is “Regulation of melanogenesis was observed”. The “melanogenic activity (FIGS. 3A-3D)” value in series [4] (melanocytes pre-treated with 10 uM PGE2, 24 hours of compound exposure) is on record as “particularly dominant in melanogenic activity”. Moreover, in series [4] (melanocytes, 24 hours of compound exposure), the “expression of melanogenic genes (FIG. 4, FIG. 5)” value was “downregulation of melanogenic genes”. Further, the melanocyte morphology entry in series [5] (24 hour post-initial dosing) is on record as “circular morphology”; in series [5] (48 hours post-initial dosing, maintained through the 5 day dosing period) it was “returned to normal morphology”. In series [6], the “effects on melanogenesis activity” value was “significant effects on melanogenesis activity”.
